Earlier results as cited in PMC4567469.

Target: Ran (Homo sapiens) (UniProt P62826)

Q: For “Leader protein (LE) (from UniProt P03304)”, which Kd is on record?
A: 3 nM
